Measured values from US20220411531A1 (SUMGEN MAB BEIJING BIOTECH, published 2022).

How the values were obtained:
[1] = molecular target: T1, AXL-His (Sino Biological Inc., 6x His labels, molecular weight 47.5 Kda) (UniProt P30530-2 26-440, limits assumed); experiment: SPR (Biacore T-200), antibody captured on chip, AXL-His as analyte
T1 construct: Bought reagent; also called target antigen AXL-His; target antigen AXL; not shown: 6x His tag
T1 sequence (looked up): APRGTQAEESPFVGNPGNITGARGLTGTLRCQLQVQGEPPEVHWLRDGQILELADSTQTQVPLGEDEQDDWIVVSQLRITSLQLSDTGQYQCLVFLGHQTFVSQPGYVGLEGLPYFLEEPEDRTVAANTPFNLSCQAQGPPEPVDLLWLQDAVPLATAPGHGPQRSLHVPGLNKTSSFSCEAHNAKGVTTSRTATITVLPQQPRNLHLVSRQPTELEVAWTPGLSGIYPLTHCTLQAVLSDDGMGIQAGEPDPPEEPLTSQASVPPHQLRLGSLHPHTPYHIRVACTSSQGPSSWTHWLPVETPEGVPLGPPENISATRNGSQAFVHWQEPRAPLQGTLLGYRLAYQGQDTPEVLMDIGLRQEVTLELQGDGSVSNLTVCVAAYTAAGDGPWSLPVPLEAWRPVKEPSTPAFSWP
Description: In this test, the affinity of AXL-His to each of the antibodies 6G12M11, 6G12M21, 6G12M31, and 6G12M41 was detected by the surface plasmon resonance technology. The test instrument used was BIACOR biomacromolecule interaction instrument (GE Healthcare, T-200). The antibodies 6G12M11, 6G12M21, 6G12M31, and 6G12M41 were immobilized on the surface of a chip by an antibody capturing method, and with all the concentrations set to 0.5 μg/mL, were injected for 60 seconds at a flow rate of 10 μL/min. The prepared AXL-His (Sino Biological Inc., 6× His labels, molecular weight: 47.5 Kda) as a mobile phase was let to flow through the surface of the chip under 5 concentration gradients (8, 4, 2, 1, 0.5 μg/mL) respectively for interaction determination. The AXL-His underwent association for 120 s and dissociation for 1800 s at the flow rate of 30 μL/min.

[2] = molecular target: T1, AXL-His (Sino Biological Inc., 6x His …); experiment: ELISA, AXL-His coated at 1 µg/ml, anti-human IgG Fab-HRP, OD450
Description: TYRO3-Fc (ACRO Biosystems), MER-His (ACRO Biosystems), and AXL-His (Sino Biological Inc.) each were coated at 1 μg/ml on an ELISA strip, which was held at 4° C. overnight. After the ELISA strips were washed with PBST, 10% fetal bovine serum was added to the ELISA strip, which was blocked for 1 hour at 37° C. Antibodies […], 6G12M21, 6G12M31 and 6G12M41 were added to react at 37° C. for 1 hour. After the ELISA strips were washed with PBST, horseradish peroxidase-labeled goat anti-human IgG Fab secondary antibodies (Goat Anti-Human IgG (Fab′)₂ (HRP), Abcam) were added to react for 30 minutes at 37° C. The ELISA strips were washed 5 times with PBST, and patted and dried on absorbent paper to remove residual droplets as much as possible. 100 μl of TMB (eBioscience, #85-00-420) was added to each well, and the ELISA strips were held for 1.5 min at room temperature (20±5° C.) in the dark. 100 μl of 2N H₂SO₄ stop solution was added to each well to terminate substrate reaction. The OD value was read at 450 nm by a microplate reader to analyze the binding ability of antibodies to the proteins.

[3] = molecular target: T1, AXL-His (Sino Biological Inc., 6x His …); experiment: ELISA, AXL-His coated at 1 ug/ml
Description: A target antigen AXL-His (Sino Biological Inc.) was coated at 1 μg/ml on an ELISA strip, which was held at 4° C. overnight. After the ELISA strip was washed with PBST, 10% fetal bovine serum was added to the ELISA strip, which was blocked for 1 hour at 37° C. Different concentrations of antibodies 6G12M11, 6G12M21, 6G12M31 and 6G12M41 were added to react at 37° C. for 1 hour. After the ELISA strip was washed with PBST, a horseradish peroxidase-labeled goat anti-mouse secondary antibody (Goat Anti-mouse IgG HRP, Abcam) was added to react for 30 minutes at 37° C. The ELISA strip was washed 5 times with PBST, and patted and dried on absorbent paper to remove residual droplets as much as possible. 100 μl of TMB (eBioscience) was added to each well, and the ELISA strip was held for 1.5 min at room temperature (20±5° C.) in the dark. 100 μl of 2N H₂SO₄ stop solution was added to each well to terminate substrate reaction. The OD value was read at 450 nm by a microplate reader to analyze the binding ability of each antibody to the target antigen AXL. The amino acid sequence of the heavy chain of antibody 6G12M11 is as set forth in SEQ ID NO: 35, and the amino acid sequence of the light chain of the same is as set forth in SEQ ID NO: 36; the amino acid sequence of the heavy chain of antibody 6G12M21 is as set forth in SEQ ID NO: 37, and the amino acid sequence of the light chain of the same is as set forth in SEQ ID NO: 38; the VH of antibody 6G12M31 is as set forth in SEQ ID NO: 42, and the VL of the same is as set forth in SEQ ID NO: 6; and the VH of antibody 6G12M41 is as set forth in SEQ ID NO: 43, and the VL of the same is as set forth in SEQ ID NO: 6.
It can be seen that both antibodies 6G12M11 and 6G12M21 can specifically recognize the target antigen AXL.

| Binder | Kd [1] [nM] | koff [1] [s⁻¹] | kon [1] [M⁻¹ s⁻¹] | EC50 (read off the curve) [2] [µg/mL] | EC50 [3] [µg/mL] |
| --- | --- | --- | --- | --- | --- |
| antibody 6G12M31 (antibody, V domains shown) VH: QVQLVQSGPGLVKPSQSLSLTCSVTGFSISSGYYWNWIRQFPGQKLEWMGYRSYDGSNNYDPSLKNRISITRDTSKNQFFLKLNSVTSEDTATYYCARGWLLHYTMDYWGQGTTVTVSS VL: DIVMTQSPSSVSVTLGQSASISCRSSRSLLHSNGFTYLYWYLQKPGQSPQLLIYQMSNLASGVPDRFSGSGSGTDFTLKISRVEAEDVGVYYCGQNLELPLTFGGGTKLEIK | 29.2 | 0.00116 | 39700 | ~0.03 | 0.0211 |
| antibody 6G12M11 (antibody, human IgG1, kappa, V domains shown) VH: QVQLVQSGPGLVKPSQSLSLTCAVTGFSISSGYYWNWIRQFPGQKLEWMGYRSYDGSNNYNPSLKNRISITRDTSKNQFFLKLNSVTSEDTATYYCARGWLLHYTMDYWGQGTTVTVSS VL: EIVMTQSPSSVSVTLGQSASISCRSSRSLLHSNGFTYLYWYLQKPGQSPQLLIYQMSNLASGVPDRFSGSGSGTDFTLKISRVEAEDVGVYYCGQNLELPLTFGGGTKLEIKR | 11.7 | 0.00114 | 97400 | ~0.03 | 0.027 |
| antibody 6G12M21 (antibody, human IgG1, kappa, V domains shown) VH: QVQLVQSGPGLVKPSQSLSLTCSVTGFSISSGYYWNWIRQFPGQKLEWMGYRSYDGSNNYNPSLKNRISITRDTSKNQFFLKLNSVTSEDTATYYCARGWLLHYTMDYWGQGTTVTVSS VL: DIVMTQSPSSVSVTLGQSASISCRSSRSLLHSNGFTYLYWYLQKPGQSPQLLIYQMSNLASGVPDRFSGSGSGTDFTLKISRVEAEDVGVYYCGQNLELPLTFGGGTKLEIKR | 10.2 | 0.00114 | 112000 | ~0.03 | 0.0253 |
| antibody 6G12M41 (antibody, V domains shown) VH: QVQLVQSGPGLVKPSQSLSLTCSVTGFSISSGYYWNWIRQFPGQKLEWMGYRSYDGSNNYGPSLKNRISITRDTSKNQFFLKLNSVTSEDTATYYCARGWLLHYTMDYWGQGTTVTVSS VL: DIVMTQSPSSVSVTLGQSASISCRSSRSLLHSNGFTYLYWYLQKPGQSPQLLIYQMSNLASGVPDRFSGSGSGTDFTLKISRVEAEDVGVYYCGQNLELPLTFGGGTKLEIK | 28.7 | 0.00119 | 41500 | ~0.03 | 0.0176 |
